Measured values reported in IntAct's records for PubMed 31515488.

B1: Tetratricopeptide repeat protein 14 (Homo sapiens), Q96N46 (parent)
chain: MDRDLLRQSLNCHGSSLLSLLRSEQQDNPHFRSLLGSAAEPARGPPPQHPLQGRKEKRVDNIEIQKFISKKADLLFALSWKSDAPATSEINEDSEDHYAIMPPLEQFMEIPSMDRRELFFRDIERGDIVIGRISSIREFGFFMVLICLGSGIMRDIAHLEITALCPLRDVPSHSNHGDPLSYYQTGDIIRAGIKDIDRYHEKLAVSLYSSSLPPHLSGIKLGVISSEELPLYYRRSVELNSNSLESYENVMQSSLGFVNPGVVEFLLEKLGIDESNPPSLMRGLQSKNFSEDDFASALRKKQSASWALKCVKIGVDYFKVGRHVDAMNEYNKALEIDKQNVEALVARGALYATKGSLNKAIEDFELALENCPTHRNARKYLCQTLVERGGQLEEEEKFLNAESYYKKALALDETFKDAEDALQKLHKYMQKSLELREKQAEKEEKQKTKKIETSAEKLRKLLKEEKRLKKKRRKSTSSSSVSSADESVSSSSSSSSSGHKRHKKHKRNRSESSRSSRRHSSRASSNQIDQNRKDECYPVPANTSASFLNHKQEVEKLLGKQDRLQYEKTQIKEKDRCPLSSSSLEIPDDFGGRSEDPRDFYNSYKTQAGSSKTEKPYKSERHFSSRRNSSDSFCRNSEDKIYGYRRFEKDIEGRKEHYRRWEPGSVRHSTSPASSEYSWKSVEKYKKYAHSGSRDFSRHEQRYRLNTNQGEYEREDNYGEDIKTEVPEEDALSSKEHSESSVKKNLPQNLLNIFNQIAEFEKEKGNKSKN
B2: Mevalonate kinase (Homo sapiens), Q03426 (parent)
chain: MLSEVLLVSAPGKVILHGEHAVVHGKVALAVSLNLRTFLRLQPHSNGKVDLSLPNIGIKRAWDVARLQSLDTSFLEQGDVTTPTSEQVEKLKEVAGLPDDCAVTERLAVLAFLYLYLSICRKQRALPSLDIVVWSELPPGAGLGSSAAYSVCLAAALLTVCEEIPNPLKDGDCVNRWTKEDLELINKWAFQGERMIHGNPSGVDNAVSTWGGALRYHQGKISSLKRSPALQILLTNTKVPRNTRALVAGVRNRLLKFPEIVAPLLTSIDAISLECERVLGEMGEAPAPEQYLVLEELIDMNQHHLNALGVGHASLDQLCQVTRARGLHSKLTGAGGGGCGITLLKPGLEQPEVEATKQALTSCGFDCLETSIGAPGVSIHSATSLDSRVQQALDGL
B3: Keratin, type II cytoskeletal 6A (Homo sapiens), P02538 (parent)
chain: MASTSTTIRSHSSSRRGFSANSARLPGVSRSGFSSVSVSRSRGSGGLGGACGGAGFGSRSLYGLGGSKRISIGGGSCAISGGYGSRAGGSYGFGGAGSGFGFGGGAGIGFGLGGGAGLAGGFGGPGFPVCPPGGIQEVTVNQSLLTPLNLQIDPTIQRVRAEEREQIKTLNNKFASFIDKVRFLEQQNKVLETKWTLLQEQGTKTVRQNLEPLFEQYINNLRRQLDSIVGERGRLDSELRGMQDLVEDFKNKYEDEINKRTAAENEFVTLKKDVDAAYMNKVELQAKADTLTDEINFLRALYDAELSQMQTHISDTSVVLSMDNNRNLDLDSIIAEVKAQYEEIAQRSRAEAESWYQTKYEELQVTAGRHGDDLRNTKQEIAEINRMIQRLRSEIDHVKKQCANLQAAIADAEQRGEMALKDAKNKLEGLEDALQKAKQDLARLLKEYQELMNVKLALDVEIATYRKLLEGEECRLNGEGVGQVNISVVQSTVSSGYGGASGVGSGLGLGGGSSYSYGSGLGVGGGFSSSSGRAIGGGLSSVGGGSSTIKYTTTSSSSRKSYKH
B4: Regulator of G-protein signaling 20 (Homo sapiens), O76081 (parent)
chain: MPQLSQDNQECLQKHFSRPSIWTQFLPLFRAQRYNTDIHQITENEGDLRAVPDIKSFPPAQLPDSPAAPKLFGLLSSPLSSLARFFSHLLRRPPPEAPRRRLDFSPLLPALPAARLSRGHEELPGRLSLLLGAALALPGRPSGGRPLRPPHPVAKPREEDATAGQSSPMPQMGSERMEMRKRQMPAAQDTPGAAPGQPGAGSRGSNACCFCWCCCCSCSCLTVRNQEDQRPTIASHELRADLPTWEESPAPTLEEVNAWAQSFDKLMVTPAGRNAFREFLRTEFSEENMLFWMACEELKKEANKNIIEEKARIIYEDYISILSPKEVSLDSRVREVINRNMVEPSQHIFDDAQLQIYTLMHRDSYPRFMNSAVYKDLLQSLSEKSIEA

Variants of: B1
Settings: with cep70_human CEP70, Q8NHQ1
Sequence of cep70_human CEP70, Q8NHQ1 (Q8NHQ1 whole entry): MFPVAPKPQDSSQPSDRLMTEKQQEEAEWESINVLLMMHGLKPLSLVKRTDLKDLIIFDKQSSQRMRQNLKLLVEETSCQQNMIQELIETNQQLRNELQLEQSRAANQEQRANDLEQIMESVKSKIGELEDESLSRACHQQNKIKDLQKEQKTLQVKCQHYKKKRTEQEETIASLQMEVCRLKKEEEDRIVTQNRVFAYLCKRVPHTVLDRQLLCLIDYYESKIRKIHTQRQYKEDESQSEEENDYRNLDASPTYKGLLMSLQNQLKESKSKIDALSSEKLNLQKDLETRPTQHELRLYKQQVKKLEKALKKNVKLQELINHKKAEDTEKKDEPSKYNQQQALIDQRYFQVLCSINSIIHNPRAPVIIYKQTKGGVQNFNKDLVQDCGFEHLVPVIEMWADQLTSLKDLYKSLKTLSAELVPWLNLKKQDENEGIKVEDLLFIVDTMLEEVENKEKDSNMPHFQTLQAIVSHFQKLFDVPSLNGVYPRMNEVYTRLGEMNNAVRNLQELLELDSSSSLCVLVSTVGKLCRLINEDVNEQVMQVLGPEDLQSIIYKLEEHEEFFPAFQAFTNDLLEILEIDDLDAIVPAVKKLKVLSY
With E486Q the “effect of a mutation on the interaction” value was “with no effect”.

Variants of: B2
Settings: with ews_human EWSR1, Q01844
Sequence of ews_human EWSR1, Q01844 (Q01844 whole entry): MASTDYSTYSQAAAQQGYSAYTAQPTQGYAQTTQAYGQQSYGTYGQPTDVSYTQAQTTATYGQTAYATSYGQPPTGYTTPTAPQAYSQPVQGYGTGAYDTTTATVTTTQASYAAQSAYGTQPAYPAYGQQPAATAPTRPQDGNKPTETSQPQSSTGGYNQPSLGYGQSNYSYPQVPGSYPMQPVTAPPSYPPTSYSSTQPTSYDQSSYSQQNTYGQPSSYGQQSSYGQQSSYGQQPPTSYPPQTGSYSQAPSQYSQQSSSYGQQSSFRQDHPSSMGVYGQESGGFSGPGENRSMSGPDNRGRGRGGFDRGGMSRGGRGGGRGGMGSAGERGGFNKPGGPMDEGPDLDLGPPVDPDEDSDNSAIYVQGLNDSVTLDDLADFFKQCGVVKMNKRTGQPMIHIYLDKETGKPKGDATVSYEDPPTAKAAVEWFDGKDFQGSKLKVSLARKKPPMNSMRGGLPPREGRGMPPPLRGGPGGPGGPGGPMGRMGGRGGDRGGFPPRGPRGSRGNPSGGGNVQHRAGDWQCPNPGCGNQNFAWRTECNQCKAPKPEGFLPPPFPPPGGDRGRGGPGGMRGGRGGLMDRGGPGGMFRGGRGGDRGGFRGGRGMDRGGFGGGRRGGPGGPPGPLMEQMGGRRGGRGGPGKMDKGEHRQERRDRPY
For N301T, the “effect of a mutation on the interaction” value was “with no effect”.
H20Q was tested, and the “effect of a mutation on the interaction” value was “with no effect”.

Variants of: B3
Settings: with KRT17, Q04695
Sequence of KRT17, Q04695 (Q04695 whole entry): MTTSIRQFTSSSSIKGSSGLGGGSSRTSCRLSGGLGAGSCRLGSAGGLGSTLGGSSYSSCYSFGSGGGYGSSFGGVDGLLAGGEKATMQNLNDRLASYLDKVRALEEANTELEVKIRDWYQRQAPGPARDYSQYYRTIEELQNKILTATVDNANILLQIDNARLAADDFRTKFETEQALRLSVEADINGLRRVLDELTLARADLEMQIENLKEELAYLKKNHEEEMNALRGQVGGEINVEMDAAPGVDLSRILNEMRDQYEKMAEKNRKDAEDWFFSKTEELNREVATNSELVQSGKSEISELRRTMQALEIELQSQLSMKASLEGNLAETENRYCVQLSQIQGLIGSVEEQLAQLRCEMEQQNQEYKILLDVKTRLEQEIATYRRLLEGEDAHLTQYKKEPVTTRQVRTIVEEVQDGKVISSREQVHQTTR
In the case of R415H, the “effect of a mutation on the interaction” value is reported as “with no effect”.
In the case of A335T, the “effect of a mutation on the interaction” value is reported as “with no effect”.
With R559G the “effect of a mutation on the interaction” value was “with no effect”.
In the case of L210M, the “effect of a mutation on the interaction” value is reported as “with no effect”.
For T552S, the “effect of a mutation on the interaction” value was “with no effect”.
For V523F, the “effect of a mutation on the interaction” value was “with no effect”.

Variants of: B3
Settings: with tfp11_human TFIP11, Q9UBB9
Sequence of tfp11_human TFIP11, Q9UBB9 (Q9UBB9 whole entry): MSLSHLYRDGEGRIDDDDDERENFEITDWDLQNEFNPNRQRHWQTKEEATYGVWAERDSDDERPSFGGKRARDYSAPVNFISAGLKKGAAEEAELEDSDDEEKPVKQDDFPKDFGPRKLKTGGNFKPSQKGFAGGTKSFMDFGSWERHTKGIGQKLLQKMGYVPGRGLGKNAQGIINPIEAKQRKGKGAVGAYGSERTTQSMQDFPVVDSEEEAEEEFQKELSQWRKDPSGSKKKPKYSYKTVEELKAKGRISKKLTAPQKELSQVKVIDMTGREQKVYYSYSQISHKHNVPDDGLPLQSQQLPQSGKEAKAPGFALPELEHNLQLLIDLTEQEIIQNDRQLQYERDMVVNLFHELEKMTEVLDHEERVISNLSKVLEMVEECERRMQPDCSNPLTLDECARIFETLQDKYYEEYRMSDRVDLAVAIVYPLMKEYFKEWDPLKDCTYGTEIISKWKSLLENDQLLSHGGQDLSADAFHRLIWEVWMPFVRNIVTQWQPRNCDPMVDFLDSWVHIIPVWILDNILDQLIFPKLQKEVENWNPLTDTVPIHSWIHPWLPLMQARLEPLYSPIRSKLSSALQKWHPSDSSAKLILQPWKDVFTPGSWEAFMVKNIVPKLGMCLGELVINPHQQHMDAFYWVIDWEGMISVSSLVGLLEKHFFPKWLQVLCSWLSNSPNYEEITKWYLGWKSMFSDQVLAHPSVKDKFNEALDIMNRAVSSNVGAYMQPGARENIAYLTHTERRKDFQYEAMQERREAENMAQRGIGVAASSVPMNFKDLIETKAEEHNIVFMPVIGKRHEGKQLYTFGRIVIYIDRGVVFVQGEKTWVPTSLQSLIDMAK
R415H was tested, and the “effect of a mutation on the interaction” value was “with no effect”.
With A335T the “effect of a mutation on the interaction” value was “with no effect”.
For R559G, the “effect of a mutation on the interaction” value was “with no effect”.
L210M was tested, and the “effect of a mutation on the interaction” value was “with no effect”.
T552S was tested, and the “effect of a mutation on the interaction” value was “with no effect”.
For V523F, the “effect of a mutation on the interaction” value was “with no effect”.

Variants of: B3
Settings: with KRT15, P19012
Sequence of KRT15, P19012 (P19012 whole entry): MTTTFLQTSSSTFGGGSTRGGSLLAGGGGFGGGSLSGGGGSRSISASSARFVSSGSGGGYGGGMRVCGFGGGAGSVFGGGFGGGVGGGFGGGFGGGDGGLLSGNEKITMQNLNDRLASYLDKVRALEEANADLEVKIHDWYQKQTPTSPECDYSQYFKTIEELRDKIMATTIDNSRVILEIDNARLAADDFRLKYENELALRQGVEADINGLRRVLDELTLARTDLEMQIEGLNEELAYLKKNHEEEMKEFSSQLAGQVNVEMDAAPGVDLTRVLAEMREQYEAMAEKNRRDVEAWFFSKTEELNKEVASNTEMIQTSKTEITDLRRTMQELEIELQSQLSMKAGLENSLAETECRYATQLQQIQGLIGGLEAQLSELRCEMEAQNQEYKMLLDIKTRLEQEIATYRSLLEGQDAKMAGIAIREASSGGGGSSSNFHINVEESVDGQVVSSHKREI
R415H was tested, and the “effect of a mutation on the interaction” value was “with no effect”.
For A335T, the “effect of a mutation on the interaction” value was “with no effect”.
For R559G, the “effect of a mutation on the interaction” value was “with no effect”.
L210M was tested, and the “effect of a mutation on the interaction” value was “with no effect”.
In the case of T552S, the “effect of a mutation on the interaction” value is reported as “with no effect”.
With V523F the “effect of a mutation on the interaction” value was “with no effect”.

Variants of: B4
Settings: with otx1_human OTX1, P32242
Sequence of otx1_human OTX1, P32242 (P32242 whole entry): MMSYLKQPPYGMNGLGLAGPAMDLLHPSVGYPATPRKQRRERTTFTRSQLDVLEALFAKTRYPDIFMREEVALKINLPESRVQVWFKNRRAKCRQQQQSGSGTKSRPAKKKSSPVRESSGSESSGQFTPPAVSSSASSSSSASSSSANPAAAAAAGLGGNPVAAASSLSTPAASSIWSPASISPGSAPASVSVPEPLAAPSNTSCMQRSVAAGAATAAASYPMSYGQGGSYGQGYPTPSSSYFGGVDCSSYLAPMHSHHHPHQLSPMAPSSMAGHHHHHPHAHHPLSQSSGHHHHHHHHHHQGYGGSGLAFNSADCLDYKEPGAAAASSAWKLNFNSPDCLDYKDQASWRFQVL
H347Y was tested, and the “effect of a mutation on the interaction” value was “with no effect”.

Variants of: B4
Settings: with co8a1_human COL8A1, P27658
Sequence of co8a1_human COL8A1, P27658 (P27658 whole entry): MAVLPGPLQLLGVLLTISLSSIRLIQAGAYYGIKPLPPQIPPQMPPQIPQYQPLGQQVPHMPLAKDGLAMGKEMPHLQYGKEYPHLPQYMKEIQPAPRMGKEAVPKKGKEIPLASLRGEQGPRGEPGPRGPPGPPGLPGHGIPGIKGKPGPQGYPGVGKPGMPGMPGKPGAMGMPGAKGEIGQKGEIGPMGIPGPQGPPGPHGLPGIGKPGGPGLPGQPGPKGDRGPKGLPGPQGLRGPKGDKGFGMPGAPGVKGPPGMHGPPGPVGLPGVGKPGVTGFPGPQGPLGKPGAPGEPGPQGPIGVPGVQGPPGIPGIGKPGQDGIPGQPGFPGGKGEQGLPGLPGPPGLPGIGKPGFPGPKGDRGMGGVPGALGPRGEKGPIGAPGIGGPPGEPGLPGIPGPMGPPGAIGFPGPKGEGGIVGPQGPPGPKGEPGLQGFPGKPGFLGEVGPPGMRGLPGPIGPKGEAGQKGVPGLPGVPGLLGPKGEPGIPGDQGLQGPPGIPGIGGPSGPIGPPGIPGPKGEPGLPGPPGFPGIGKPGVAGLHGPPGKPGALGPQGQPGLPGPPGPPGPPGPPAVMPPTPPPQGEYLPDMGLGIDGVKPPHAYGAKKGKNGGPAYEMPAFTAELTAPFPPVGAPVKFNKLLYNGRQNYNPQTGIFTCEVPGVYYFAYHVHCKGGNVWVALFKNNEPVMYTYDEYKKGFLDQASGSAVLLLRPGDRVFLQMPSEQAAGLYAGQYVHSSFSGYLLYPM
In the case of H347Y, the “effect of a mutation on the interaction” value is reported as “with no effect”.

Variants of: B4
Settings: with hxa1_human HOXA1, P49639
Sequence of hxa1_human HOXA1, P49639 (P49639 whole entry): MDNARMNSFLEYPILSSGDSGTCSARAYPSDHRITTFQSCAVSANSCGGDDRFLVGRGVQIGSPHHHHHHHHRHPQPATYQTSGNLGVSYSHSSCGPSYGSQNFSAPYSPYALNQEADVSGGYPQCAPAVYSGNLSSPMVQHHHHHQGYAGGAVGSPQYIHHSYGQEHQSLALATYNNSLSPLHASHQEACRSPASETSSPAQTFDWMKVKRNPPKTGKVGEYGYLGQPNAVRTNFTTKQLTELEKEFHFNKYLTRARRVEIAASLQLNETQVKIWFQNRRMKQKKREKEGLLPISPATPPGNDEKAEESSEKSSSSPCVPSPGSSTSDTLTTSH
In the case of H347Y, the “effect of a mutation on the interaction” value is reported as “with no effect”.
